Laboratory results published in patent US20070298997A1, “Compounds useful in treating diabetic microvascular complications and age-related macular degeneration” (priority 2003, published 2007).
“Also recorded” adds a separate entry of the source. Like-named read-outs stand apart in the source and are kept apart here.

Columns and labels:
[1] = test system: PEDF; test: PEDF secretion in HMC under high glucose (ELISA); assay type: cell-based, human; conditions: 30 mM glucose, 3 days
Protocol: FIG. 13 illustrates prevention of the high glucose-induced decrease of PEDF in HMC by kallistatin. HMC were treated with high glucose (30 mM) in the presence of different concentrations of kallistatin for 3 days. Control cells were treated with 5 mM glucose and 5 mM glucose+25 mM mannitol as an osmolarity control. PEDF secretion into the medium was measured by ELISA (mean±SD, n=3).
Kallistatin up-regulates endogenous anti-inflammatory factors in the kidney. Pigment epithelium-derived factor (PEDF) is an anti-angiogenic factor. Recently, the inventor has shown that PEDF also has anti-inflammatory activities and has a protective effect against DN (see U.S. Ser. No. 10/963,115, filed Oct. 12, 2004, the contents of which are hereby expressly incorporated herein by reference). Decreased PEDF levels in diabetic kidney may contribute to the development of DN. The effect of kallistatin on PEDF expression has been determined in kidney cells. HMC were treated with high glucose (30 mM glucose) with different concentrations of kallistatin for 3 days. The PEDF levels in the cultured medium were measured by ELISA specific for PEDF.

[2] = test system: pericytes; test: Quantification of viable cells by MTT assay, pericytes; assay type: cell-based, bovine; conditions: 5-160 nM, 72 h, P>0.05
Protocol: FIG. 2 illustrates the specific inhibition of endothelial cell proliferation by recombinant kallistatin. RCEC were treated with recombinant kallistatin at concentrations of 5,10, 20, 40, 80 and 160 nM for 72 h. Viable cells were quantified by MTT assay. […] This effect appeared to be kallistatin concentration-dependent, with an apparent IC50 of 50 nM (FIG. 2) which is similar to that of K5, a known angiogenic inhibitor (Zhang et al., 2001).
Quantification of viable cells: Cells were plated in 12-well plates in triplicate and cultured in the growth medium until they reached 60-70% of confluency. The culture medium was replaced with a medium containing 1% fetal bovine serum (FBS). Recombinant kallistatin was added to the cover medium to various concentrations and incubated with the cells for 72 h. The viable cells were quantified by the MTT (3-[4,5-dimethylthiazol-2-yl]-2,5-dephenyl tetrazolium bromid, Roche, Mannheim, Germany) assay following a protocol recommended by the manufacturer. The effect of kallistatin on viable cell number was analyzed using Student's t test.

[3] = test system: retinal neovascularization; assay type: in vivo, Brown Norway rats; conditions: for pre-retinal vascular cells: P<0.01
Protocol: Retinal neovascularization was induced in Brown Norway rats by exposure of newborn rats to hyperoxia as described previously (Gao et al., 2001). Kallistatin was injected intravitreally at P12, and the control eyes received the same volume of PBS. Rats were kept under normoxia for another 5 days, and retinal neovascularization was examined by fluorescein angiography (P17). The control eyes (PBS-injected) developed typical retinal neo-vascularization, including neovascular tufts, microaneurysms, enlarged non-perfusion regions and vascular leakage (FIG. 5a).
(§1) Induction of retinal neovascularization and intravitreal injection of kallistatin: Retinal neovascularization was induced as described by Smith et al. (Smith et al., 1994) with some modifications. Briefly, newborn pigmented Brown Norway rats at postnatal day 7 (P7) were exposed to hyperoxia (75% O2) for 5 days and then normoxia. Animals were anesthetized, and kallistatin was injected into the vitreous of the right eye through the pars plana using a glass capillary. The left eye received the same volume of PBS as the control. After injection, the animals were kept in normoxia for another 5 days for further analyses.
Retinal angiography with high molecular weight fluorescein and quantification of neovascularization: Retinal angiography was as described by Smith et al. (Smith et al., 1994). Briefly, rats were anesthetized and perfused with fluorescein via intra-ventricle injection of 50 mg/ml of high molecular weight (2×10^6) fluorescein isothiocyanate-dextran (Sigma, St. Louis, Mo.). The animals were immediately sacrificed, and the eyes were enucleated and fixed in 4% paraformaldehyde for 10 min. The retina was dissected free of the lens and vitreous and incubated in 4% paraformaldehyde for 3 h. The retina was cut and flat-mounted on a gelatin-coated slide. The vasculature was then examined under a fluorescent microscope (Axioplan2 Imaging, Zeiss).
Retinal neovascularization was quantified by counting pre-retinal vascular cells as previously described (Zhang et al., 2001). The average number of pre-retinal vascular nuclei was compared to the PBS control group by Student's t test.

[4] = test system: primary human mesangial cells (HMC); test: High glucose-induced fibronectin secretion in HMC (ELISA); assay type: cell-based; conditions: 30 mM glucose, 25 to 1600 nM, 3 days
Protocol: FIG. 11 illustrates blockage of high glucose-induced fibronectin secretion by kallistatin in human mesangial cells (HMC). Primary HMC was treated with high glucose (30 mM) in the presence of different concentrations of kallistatin as indicated for 3 days. Control cells were cultured in 5 mM glucose. To overcome the osmolarity difference, mannitol control cells were treated with 25 mM mannitol+5 mM glucose under the same conditions. Fibronectin secreted into the culture medium was measured by ELISA (mean±SD, n=3).
Cultured primary human mesangial cells (HMC) were treated with 30 mM glucose in the absence or presence of different concentrations of kallistatin (25-1600 nM) for 3 days. Cells cultured in 5 mM glucose were used as a control. To exclude the possible effect of osmolarity from high glucose, an osmolarity control was also included which was treated with 5 mM glucose and 25 mM mannitol. After the treatments for 3 days, secretion of fibronectin into the culture medium was measured.

[5] = test system: retina; test: Retinal toxicity after intravitreal injection (histology of retinal sections); assay type: in vivo, Brown Norway rats
Protocol: as §1

[6] = test system: VEGF; test: VEGF in the conditioned medium of RCEC by ELISA; assay type: cell-based, bovine; conditions: RCEC under hypoxia, 24 h, 5-80 nM
Protocol: FIG. 9 illustrates down-regulation of VEGF expression by kallistatin. As increased VEGF levels in the retina and vitreous play a key role in the development of retinal neovascularization, the effect of kallistatin on the expression of VEGF in cultured RCEC was determined. VEGF secreted into the conditioned medium was measured by VEGF ELISA and normalized by total protein concentration in the medium.
Measurement of VEGF in the conditioned medium of RCEC by ELISA: RCEC were seeded in T75 flasks in endothelial cell growth medium and cultured in a CO2 incubator to reach 60-70% confluency. The cells were washed 3 times with PBS and the growth medium replaced by a serum-free medium containing bFGF (GIBCO-BRL, Gaithersburg, Md.). Kallistatin was added to the medium to various concentrations and incubated with the cells for 24 h under normoxia or hypoxia (in a chamber that was perfused with a mixture of 95% N2+5% CO2). The conditioned medium was harvested for VEGF ELISA and the cells were used for Western blot analysis. The conditioned medium was centrifuged and the protein concentration in the supernatant was measured with BioRad protein assay. VEGF concentration was measured using a VEGF ELISA kit (R& D systems, Minneapolis, Minn.) and normalized by total protein concentration in the medium.

B1: kallistatin: Recombinant His-tagged rat kallistatin (serpin, SEQ ID NO:1) expressed in E. coli and affinity-purified (protein, listed as Homo sapiens)
chain: DGILGRDTLPHEDQGKGRQLHSLTLASINTDFTLSLYKKLALRNPDKNVVFSPLSISAALAILSLGAKDSTMEEILEVLKFNLTEITEEEIHHQGFGHLLQRLSQPEDQAEINTGSALFIDKEQPILSEFQEKTRALYQAEAFVADFKQCNEAKKFINDYVSNQTQGKIAELFSELDERTSMVLVNYLLFKGKWKVPFNPNDTFESEFYLDEKRSVKVPMMKIKDLTTPYIRDEELSCSVLELKYTGNASALFILPDQGKMQQVESSLQPETLKKWKDSLRPRIISELRMPKFSISTDYNLEEVLPELGIRKIFSQQADLSRITGTKNLHVSQVVHKAVLDVDETGTEGAAATAVTAALKSLPQTIPPLNFNRPFMLVITDNNGQSVFFMGKVTNPM
modifications: His tag
- PEDF levels in the cultured medium [1]: prevents the decrease of PEDF under the high glucose insult
- PEDF levels in the cultured medium ([1]; listed as Kallistatin): reversed the changes of PEDF under high glucose conditions
- inhibition of pericytes (viable cells) [2]: did not result in any significant inhibition
- pre-retinal vascular cells ([3]; OIR rats, 12.5 μg per eye intravitreal): significantly decreased pre-retinal vascular cells
- pre-retinal vascular cells ([3]; OIR rats, 25 μg per eye intravitreal): significantly decreased pre-retinal vascular cells
- retinal vasculature by fluorescein angiography ([3]; OIR rats, intravitreal injection at P12, examined P17): apparent improvement in retinal vasculature
- retinal vasculature by fluorescein angiography, normal rats ([3]; rat, in vivo): did not result in any apparent difference in retinal vasculature
- fibronectin production (secretion into medium) [4]: concentration-dependent decrease of fibronectin production; also recorded: fibronectin was significantly lower than the high glucose alone
- inflammatory response or toxicity to retinal tissues and normal vasculature ([5]; intravitreal injection): does not cause any detectable inflammatory response or toxicity
- histological evidence of retinal toxicity ([5]; retinal sections after intravitreal injection): No apparent histological evidence of retinal toxicity
- VEGF secreted into the conditioned medium [6]: reduced VEGF in the medium
